Test results as given in patent US20070166779.

Key:
[1] = system: SLPI present in human saliva
SLPI present in human saliva, sequence (chain, as listed by the source): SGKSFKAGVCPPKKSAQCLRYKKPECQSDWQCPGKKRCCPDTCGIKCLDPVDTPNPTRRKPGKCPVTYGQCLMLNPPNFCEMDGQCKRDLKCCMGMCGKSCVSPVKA

tryptase, sequence (chain, as listed by the source): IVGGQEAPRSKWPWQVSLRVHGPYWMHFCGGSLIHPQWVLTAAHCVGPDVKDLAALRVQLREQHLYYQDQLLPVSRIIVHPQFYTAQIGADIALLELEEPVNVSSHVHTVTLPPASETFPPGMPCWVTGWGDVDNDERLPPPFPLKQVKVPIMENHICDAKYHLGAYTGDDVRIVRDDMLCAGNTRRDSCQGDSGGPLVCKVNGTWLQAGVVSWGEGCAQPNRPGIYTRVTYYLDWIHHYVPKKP

Substance: tryptase
- cleavage of SLPI in human saliva, Western analysis [1]: The larger SLPI cleavage product was not observed when the saliva samples were incubated with cathepsin G, tryptase and proteinase 3
- cleavage of rSLPI, LC/MS (1 ug rSLPI, 50 ng protease, 5 hours) (recombinant human SLPI): did not result in the formation of the second peak
- cleavage of the reduced form of rSLPI (recombinant human SLPI): Reduction of the rSLPI samples in the presence of the proteases did result in cleavage of the SLPI protein
